Results: the supplement of paper PMC6379048

Legend:
Assay in all cases: Kd (EC50 corrected by depletion factor)
ISY1 = molecular target: T1, ISY1 (UniProt Q9ULR0)
T1 sequence: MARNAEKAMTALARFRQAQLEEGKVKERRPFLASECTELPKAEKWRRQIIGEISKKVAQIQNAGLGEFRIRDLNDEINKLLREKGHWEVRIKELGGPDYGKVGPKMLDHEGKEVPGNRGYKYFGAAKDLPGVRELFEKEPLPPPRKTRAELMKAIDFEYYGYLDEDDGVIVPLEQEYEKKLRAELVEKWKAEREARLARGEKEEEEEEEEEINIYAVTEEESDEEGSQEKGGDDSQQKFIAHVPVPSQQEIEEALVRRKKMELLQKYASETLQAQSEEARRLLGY
Procedure, shortened: (§1)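 Kd was calculated as EC50, taken from a four-parameter log-logistic fit, multiplied by a protein-dependent depletion factor. The assay used HEK293-FT lysate (2.5 mg protein/well) pre-incubated for 1 h at 4°C with free RNA oligos (0 nM to 30 μM), then incubated for 30 min at 4°C with the matching oligos bound through a 5′-amino-C6 linker to NHS-Sepharose beads. Bound proteins were measured by label-free LC-MS/MS and normalised to the control.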

MEX3A = molecular target: T2, MEX3A (UniProt A1L020)
T2 sequence: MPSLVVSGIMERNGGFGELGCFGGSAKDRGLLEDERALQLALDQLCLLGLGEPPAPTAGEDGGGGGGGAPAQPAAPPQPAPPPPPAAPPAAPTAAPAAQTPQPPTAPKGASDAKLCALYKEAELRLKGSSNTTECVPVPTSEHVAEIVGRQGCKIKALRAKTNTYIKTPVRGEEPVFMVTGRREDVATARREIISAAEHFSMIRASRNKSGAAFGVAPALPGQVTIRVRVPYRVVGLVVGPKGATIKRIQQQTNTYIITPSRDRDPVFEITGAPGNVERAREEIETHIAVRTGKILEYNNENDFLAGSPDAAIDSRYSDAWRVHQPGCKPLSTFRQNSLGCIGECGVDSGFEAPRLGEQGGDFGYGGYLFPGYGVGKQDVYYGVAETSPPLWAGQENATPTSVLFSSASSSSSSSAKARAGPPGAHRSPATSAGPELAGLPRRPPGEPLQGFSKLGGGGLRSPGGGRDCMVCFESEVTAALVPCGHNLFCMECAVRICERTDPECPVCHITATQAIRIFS
Procedure, shortened: as §1

RBMS1 = molecular target: T3, RBMS1 (UniProt P29558)
T3 sequence: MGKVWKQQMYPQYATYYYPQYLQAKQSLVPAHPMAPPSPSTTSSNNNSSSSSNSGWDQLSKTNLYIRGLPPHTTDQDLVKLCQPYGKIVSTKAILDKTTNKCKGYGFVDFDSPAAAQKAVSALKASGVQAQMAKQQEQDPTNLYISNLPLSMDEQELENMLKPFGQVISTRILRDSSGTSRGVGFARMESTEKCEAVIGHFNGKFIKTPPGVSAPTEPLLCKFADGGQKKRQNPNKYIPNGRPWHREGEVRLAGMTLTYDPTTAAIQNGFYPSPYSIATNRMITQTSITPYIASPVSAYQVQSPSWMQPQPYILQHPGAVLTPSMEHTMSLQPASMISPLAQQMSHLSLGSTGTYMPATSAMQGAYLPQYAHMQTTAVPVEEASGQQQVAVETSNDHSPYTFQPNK
Procedure, shortened: as §1

SYMPK = molecular target: T4, SYMPK (UniProt Q92797)
T4 sequence: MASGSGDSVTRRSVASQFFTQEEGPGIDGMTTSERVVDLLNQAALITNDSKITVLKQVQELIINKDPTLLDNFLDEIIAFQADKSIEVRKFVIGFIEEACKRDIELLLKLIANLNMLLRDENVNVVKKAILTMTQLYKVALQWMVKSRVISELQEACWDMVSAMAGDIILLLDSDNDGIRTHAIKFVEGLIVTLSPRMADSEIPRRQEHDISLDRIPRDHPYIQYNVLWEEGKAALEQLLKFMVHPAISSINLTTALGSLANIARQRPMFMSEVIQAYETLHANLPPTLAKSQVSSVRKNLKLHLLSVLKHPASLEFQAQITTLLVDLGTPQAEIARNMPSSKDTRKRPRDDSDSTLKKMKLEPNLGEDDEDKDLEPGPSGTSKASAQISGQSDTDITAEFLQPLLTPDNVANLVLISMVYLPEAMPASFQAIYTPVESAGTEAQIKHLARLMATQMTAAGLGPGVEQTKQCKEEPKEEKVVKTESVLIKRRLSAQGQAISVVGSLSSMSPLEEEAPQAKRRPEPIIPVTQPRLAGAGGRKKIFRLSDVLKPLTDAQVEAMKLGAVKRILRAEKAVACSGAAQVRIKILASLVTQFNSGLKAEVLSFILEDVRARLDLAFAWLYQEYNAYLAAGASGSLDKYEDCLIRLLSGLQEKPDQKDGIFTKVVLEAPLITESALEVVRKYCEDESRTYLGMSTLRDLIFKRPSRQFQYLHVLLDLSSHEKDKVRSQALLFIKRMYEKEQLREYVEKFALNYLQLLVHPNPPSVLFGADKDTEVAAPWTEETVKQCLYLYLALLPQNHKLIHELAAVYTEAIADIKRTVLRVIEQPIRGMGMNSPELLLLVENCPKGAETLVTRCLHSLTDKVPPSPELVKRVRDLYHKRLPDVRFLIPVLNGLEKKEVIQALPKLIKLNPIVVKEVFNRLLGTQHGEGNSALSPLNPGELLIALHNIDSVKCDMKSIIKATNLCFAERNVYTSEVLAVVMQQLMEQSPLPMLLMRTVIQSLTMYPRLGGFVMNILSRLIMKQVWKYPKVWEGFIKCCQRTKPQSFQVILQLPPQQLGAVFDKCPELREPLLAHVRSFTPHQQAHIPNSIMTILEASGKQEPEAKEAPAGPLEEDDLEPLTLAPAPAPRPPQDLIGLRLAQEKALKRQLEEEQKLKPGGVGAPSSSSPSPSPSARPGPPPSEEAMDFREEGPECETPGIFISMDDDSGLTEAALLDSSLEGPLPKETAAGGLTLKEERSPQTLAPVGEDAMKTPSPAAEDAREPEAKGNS
Procedure, shortened: as §1

In the case of AAUAAA, the Kd (ISY1) is reported as 198 nM, the Kd (MEX3A) is reported as 536 nM and the Kd (RBMS1) is reported as 156 nM. For the same sequence, the Kd (SYMPK) was 12.7 nM.
Work on UAUUUAU yielded a Kd (ISY1) of 414 nM, a Kd (MEX3A) of 277 nM and a Kd (RBMS1) of 114 nM. The Kd (SYMPK) was 254 nM.
